Experimental data as given in PMC3567243 (Molecular Microbiology, 2012).

Test system: CC1=CC(=O)c2ccccc2C1=O
Assay: purified protein

Question: Which Km does the source give for (Mycobacterium tuberculosis H37Rv) here?
Answer: The Km was 17.29 ± 11.63 µM.

Question: What about the kcat/Km of the same substance?
Answer: The kcat/Km was 94500 M⁻¹ s⁻¹.
